We go through five molecules from paper PMC9470112 (2020).

For this assay, the target named is T1, EBV LMP2 (latent membrane protein 2) peptide on HLA-A*01:01 (human).
T1 peptide: ESEERPPTPY
In words: multimer staining.

B1: EBV-LMP2^ESE-specific TCR from donor A (TCR)
alpha TRAV12 TRAJ3 CDR3: CVVTGYSSASKIIF
beta TRBV6-3 TRBJ2-1 CDR3: CASSWEGQYNEQFF
B1: the binding result is reported as “recognises”.

B2: TCR-C1 (TCR)
alpha TRAV30 TRAJ45 CDR3: CGTGSGGGADGLTF
beta TRBV6-3 TRBJ2-1 CDR3: CASSPEGVFNEQFF
With B2, the binding result is given as “recognises”.

B3: EBV-LMP2^ESE-specific TCR from donor E (TCR)
alpha TRAV26 TRAJ23 CDR3: CIVSGGKLIF
beta TRBV12-3/4 TRBJ2-5 CDR3: CASSSSWTSGSGETQYF
Turning to B3, the binding result is “recognises”.

B4: TCR-B1 (TCR)
alpha TRAV12 TRAJ3 CDR3: CVVTGYSSASKIIF
beta TRBV6-3 TRBJ2-1 CDR3: CASSSEGQFNEQFF
For the molecule B4, the binding result is listed as “recognises”.

B5: EBV-LMP2^ESE-specific TCR C^2 from donor C (TCR)
alpha TRAV30 TRAJ45 CDR3: CGTEDGRGGADGLTF
beta TRBV6-3 TRBJ2-1 CDR3: CASSYGIYEQFF
Regarding B5, the binding result is given as “recognises”.
